Measured values taken from a protein production outcome set (Wang et al. 2014).

Assay: label from the status in PepcDB records
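Note: failed if final PepcDB status was selected cloned or expressed and not failed if soluble or beyond.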

Sequence | protein production
MTERSDYSIRIMSRQEIGMAVDWAAEEGWNPGLHDADCFHAADPEGFLTGLLGNEPVATISVVRYGTAFGFLGFYIVRPKYRGMGFGLKIWNAGLEQLKGRTIGLDGVVAQQENYAKSGFILAYRNIRVKGSGGGKIPAHEGIKPLVELPFETLLTYDSLFFPEERRTFLECWINQRESSSLGIIENNRLSGYGVIRTCRSGSKIGPLFADRADLAEELFCALKASAPEGSPLFLDIPEVNPEAVKLAQRHNMTVVFETSRMYQGNIPELPLGNIYGVTTFELG | failed
MTERSFEGSAYSDYRSSHQKPGYGTDYAETFRSGYYAALWSRIERPLVEGILSPLGGPGRSCLDFACGTGRVAAVAGPLFGEVVGVDVSRSMLACARVPGNVKLVEADLTVAPLSRRFDVVTAFRFFLNAEDTLKRDALSAIHEHLNDGGLLVSNVHMNATSPMGLACRFLNRFQGRVVRSTLSIHAYRQMLVSNGFVVESVIGYGFLPRPGWLLPRLCETLVGPVETICRRAGVPGRFAQNFLVVARKQ | failed
MTESDRDQEASMREVVIVKSTPQRGKFNAFAELVGKLVSETRDFPGCLGAYLMLAPERNEQVVMHIWETPDALEAYLTWRADRGDFLEINEYLEVEQDFKTYQLA | not failed
MTETGDDLATVKKPIPFLVIFKDLRHVFSRDTTGREILGIAFPAALALAADPIASLIDTAFVGRLGAVQLAAVGVSIAIFNQASRITIFPLVSLTTSFVAEEDTMEKMKEEANKANLVHAETILVQDSLEKGISSPTSNDTNQPQQPPAPDTKSNSGNKSNKKEKRTIRTASTAMILGLILGLVQAIFLIFSSKLLLGVMGVKPNSPMLSPAHKYLSIRALGAPALLLSLAMQGIFRGFKDTKTPLFATVVADVINIVLDPIFIFVLRLGIIGAAIAHVISQYFMTLILFVFLAKKVNLIPPNFGDLQFGRFLKNGLLLLARTIAVTFCQTLAAAMAARLGTTPMAAFQICLQVWLTSSLLNDGLAVAGQAILACSFAEKDYNKVTAVASRVLQMGFVLGLGLSVFVGLGLYFGAGVFSKDPAVIHLMAIGIPFIAATQPINSLAFVLDGVNFGASDFAYTAYSMVGVAAISIAAVIYMAKTNGFIGIWIALTIYMALRAITGIARMATGTGPWRFLRGRSSSSSS | failed
MTETHQQLMKLPVNQVFFKYFVPATLGLILMSANILIDGLFVGNGIGTAALAGVNLSYPVISLIMAIALWIGIGGATKYSISIGENRPKKASSIFSLALFLALIISVLLGVFGILNIQTISIWLGANSDTSSFVIEYLSVMFLFGWVITLEQVLSIFVRNDGSPKLSMMALATTSIVNIILNFYTIMILDMGVTGAAISTVLGGFAGLLVLSLHFFNRQAQLRRPAFQWSWKSLMHIFAIGFPSFLAEAGLLVFVTGYNLAMASLAGTEGVAAFSVINYLHGFMFLSFFGIEMALQPMISYYHGAEETEQIKSSMKIGEKTAVILGILLLVIGWGAAPFLVGLFGIESTEIQQLAIDGIRLFFIGYTFLGYNFVYMSYFQSIGRAGSSVVIIILRSFVSLFILLWILPKFIGVTGVWLSLPLSEFFVAVLLFFIARKHVMGKGNPAIGKG | failed
MTETKPRIAIRYCTQCNWLLRAGWMAQEILQTFASDIGEVSLIPSTGGLFEITVDGTIIWERKRDGGFPGPKELKQRIRDLIDPERDLGHVDRTKHEGLDTLEHHHHHH | not failed
MTEVAHTASGSTNTMDREGLPVAETTCAPGLPLWARPEARTALGDTLRPGGFSLTDRLATLAGVHPGWRVLDVGCGTGATVLHLRQRYGASAFGCDRSTSLTPGSNNHKGLPVIAADAANLPFADGSMKMVFCECVLSLLVKPLEVLRGLRRLLVPGGLLGVSDLYLRGEGHARVTEGSCLAWQATRMRIESLLHEAGFALHTFEDHSPLLRETAARLALSGALHGGAMNCGERAFPSRDACRRCSPEGIAAPPQATPCSMTECSFSPPATRAVTEQVARPGYFLLLAQSLKGTRED | failed
MTFCFWMRDTCHQRRRADIGSANADRYWEEDMTGTPRLLESRWDDAYAQTLDEPGKLLYRSNLLGADKRITNYGGGNTSAKVLEIDPLTGEKVRVMWVKGSGGDVGTIKLDGFATLYLEKLEALKGIYKGVEDEDRMVGFLPHCTFNLNPRAASIDTPLHGFVPFDHVDHMHPDAIIAIAASKNSKELTQQIFGDDIGWLPWRRPGFQLGLDLEAFVKANPTAKGVVLESHGLFTWDDDAKACYELTLAIINKAIEWFAAETEGKTIFGGALAKSLPVAERRAIAARLMPEIRGRIGREERKLGHFDDQDAVLEFVNSKDLKPLGNLGTSCPDHFLRTKIRPLILDLDTAKPDVDALTAGLDKALEAYRADYSRYYEACRHDNSPKMRDPNPVIFLIPGVGMLSFAKDKATARIAGEFYVNAINVMRGASTVSEYQGLPEQEAFDIEYWLLEEAKLQRMPKPKSLAGRVAFVTGGAGGIGRATAERLADEGACVVLADIDEAALEAAKGDFVKRYSGDAVRTVKLDVTQEDDVISAFAEASVEFGGVDILVSNAGIASSAPVEDTTLAMWNKNIDILATGYFLVSREAFRLLRRQNLGGNIVFVASKNGLASSPNASAYCTAKAAEIHLARCLALEGAEAGIRVNTVNPDAVLRGSKIWNGEWREQRAASSKIEVTDLEEHYRKRSMLKLNVFPEDIAEAIYFLASDASAKSTGNIINVDAGNAQSFTR | failed
MTFLIPAYNEEKSIGPLIDRIKMLCPDSEIIVVDNNSSDRTSEIATSRGVRVIFEGKQGKANAMVAAFRNTRTEYAVMMDADLTYLPDDSRVLVEVLKAEGADVVLGSRLNGEKEDGAISRINTVGNHILSFTASILYSPVSDVCTGHWAFNRRAIRHILEEGLNYSGFELEAEMFSKLARAGLKIVEVPITYRKRSDEPKLSSFTDGFKIFRTLVLERLRLEHHHHHH | failed
MTFNKKEKLSITALLIILYLIPAGLEWLEFDSENLHVIAISLPIWLAFFYLGPFWLFYWTQQNKHVARLHVVAQGVLYVLMMFAGANIVSRLHSMAFPQYQFPIKEQGLSAFLWGVFIFSMTHMYLLYQRFVQEQRLRKEAQLADLTSRLNPHFLFNSLNTISALIHSSPDKADDVLHKLSDILRYSVDQQNKWVPLEHELAVCETYLTVEKARFTDNLNISWQIASSVDMRQLKVPPLLLQPLIENVMKHVKRRPIELLISVQAEQGKLIFKVKDNGKGFSEPSLNEQSKAGQGLNIVKQRVDIAGGELSLFNDTSEQGGAVCEITLPIHACV | failed
MTFSANFSLVLPEVVLAIAALVLLVAGTFRGKVGAIFTLAAVASLIAAAATAVLGPKGVAFGGVYVADAAATYAKVAIYLSSAVAVVLGDRWLAQRGDQKFEYAVLVILAALGMGVTASAGDLISLYIGVELQSLALYVLAAMRRDDAKSSEAGLKYFVLGALSSGLLLYGSSLIYGFTGSTHFSQIALAAAHGGSHGVGLLFGLVFVICGLAFKVSAAPFHMWTPDVYEGAPTPVVGFFSAAPKLAAMMMFARVLGDAFPASEEQWRQILVIAALLSVFVGAFAGLAQSNLKRLWAYSSIANVGYALLGVAAGGEVGLQSMLIFMTLYMVDVTGFFACLQALNRDGKPMETIQDMAGLVKQRPGIALAMTAFSLSALGLPPFSGFWAKYFVFKAAMGSGDVMLQWAAVIGLVGSVVAAFYYLRLIKAMWFDDAAGAVDAPSPSARAVGFAAAIFSFPIVLVALVWLEPAAKAAAAAFGHA | failed
MTFSKELREASRPIIDDIYNDGFIQDLLAGKLSNQAVRQYLRADASYLKEFTNIYAMLIPKMSSMEDVKFLVEQIEFMLEGEVEAHEVLADFINEPYEEIVKEKVWPPSGDHYIKHMYFNAFARENAAFTIAAMAPCPYVYAVIGKRAMEDPKLNKESVTSKWFQFYSTEMDELVDVFDQLMDRLTKHCSETEKKEIKENFLQSTIHERHFFNMAYINEKWEYGGNNNE | not failed
MTGGAAAAPPGRGAAFSWCLFDFANSGYPTVVATFVFSAYVTKAVAATPEAGTAAWGYAMGASGLLIALLAPIFGAVADHSGRRKPWLGLFSLLCVASTALMWTIRPDPAFLLAALVLAALSNAAFEIGGVFYNAMLPDVTTPERMGRLSGWAWGLGYAGGLACLVIALLALVQADPPPFGLDKAAAEPVRATLVLVALWFVVFGWPLFAFVPERPTGRVLALGAAARGAIDSLKGLPALFRGDPRLGWFLLARMLYTEGLNTLFAFGGIYAAGTFDMGFDQIIVFGIGLNITAGLGAFAFGWIDDWLGSPRTIVVGLIGLIGFCVAVLLVEDTAWFVGLALTMGIFFGPVQAASRTHIARVAPPDRRGELFGLFALTGKISAFAGPLAVGLATDLSGSQRLGMATVVVFLVAGLGLLVKTRAPRG | failed
MTGPTTDADAAVPRRVLIAEDEALIRMDLAEMLREEGYEIVGEAGDGQEAVELAELHKPDLVIMDVKMPRRDGIDAASEIASKRIAPIVVLTAFSQRDLVERARDAGAMAYLVKPFSISDLIPAIELAVSRFREITALEGEVATLSERLETRKLVERAKGLLQTKHGMTEPDAFKWIQRAAMDRRTTMKRVAEVVLETLGTPKDT | not failed
MTGSWLETLLLPFTVPFLRDAMIIALLVAVPTALLSCFLVLKGWALMGDAISHAVLPGVVLAYVAGLPLGVGAFAAGLGCALVTGYLKDNSRIKQDTVMGVVFSGMFGLGIVLHTSIRTDVHLDHILFGDMLGVGSSDLLESGLIALLVVGAIALKGRDLLLHAFDPQQARAIGLPVGLLHYGLLCLLALTIVGALKATGILLTVALLIGPGAIAFLFTRRFSSMLLAAVVISSLASVLGVYISLFLDSAPAPTIVLLLTLTFIAAFMVSRQRDRQRARGVDRPV | failed
MTGTSDDEEGKWKNRSTTLRRLGRQYSPDVTPEVASRRLKQWIVGNPVLLGLLHENGWTASRRVLTPKQVEQIVRVLGEP | failed
MTGTSNIPTHGKEHKDAPALLPLPAPNPHHTHAAHPGNPSHDRPPSRGKLFIKTHGCQMNEYDSAKMADVLTTTEALELTDNPEEADIILINTCSIREKAQEKVFSQLGRWRALKTSGRDVIIGVGGCVASQEGEAIVKRAPYVDLVFGPQTLHRLPDMIRARREQNRPQVDIRFPEIEKFDHLPTPRAEGPSAFVSIMEGCSKYCSFCVVPYTRGEEVSRPFEDVLTEIAHLATQGVREINLLGQNVNAYRGAMDPGPSNNTNPAPPPYADLGLLIRAIAQFESIGRIRFTTSHPLEFSDSLVEAYRDVPQLANHLHLPVQSGSDRILSAMKRGYTALEFKSKIRKLRAVRPDISISSDFIIGFPGESDTDFQKTMQLIEDIGFDQSFSFIYSRRPGTPASNLEDHTPDEIKRTRLEHLQKHINTYAADISKRMIGTVQTVLVEGPSKKNPNELTGKTENMRPVNFPGHPRLIGQFIDVHITEALSNSLRGRVHTNLEHHHHHH | not failed
MTGYGKTFALLGTCATLLGPPLSAQTGSVLSDLQNEEVQARYRAAAAERIACPRIEGDAALMAAFAKDAASKWDRAAMGCATEYGARAMEALSLPTNLIWAVATFRTDNIETHLQVLGAHLDYFEVLDKSYSAHYQGIEMATELGLRWEQARERSETLMTRIDPLVPKLTEARLLRAAYLLASTLRETPPEVQNTAVAAALEDLQIAIAENPEALDGLGPLLLGQVLAVLPEFLGGDILAAIDLLEQAHALNPTDLSVHHTLVEAYLGERETDKALALLRHAASIDPSTENPQDYADEMKYLGGLALRAGAPDLARQMAGHRSAILAAHPQLDPRKEMAALGHGGADPLTGKKPDDLN | failed
MTHETDQLYQAVQATRPLLRNITAAVERGTLREGVTVGQRAILEGLSLTPGATAPQLGAALQMKRQYISRILQEVQRAGLIERRTNPEHARSHRYWLTPRGEAIITAIRADEMAKLALFSEGFSSVELTAYHKVQLALTRFFADLAKEA | not failed
MTHTTANQVIHYVDQDGNTVFDDNDSQTLDYERSVTIDEVTGEITAYGDWKAVDGDEFGSVTSSDKPGYAIDKPVVSGEKPTITNGKDGKVSDVEVTVTYTALEHHHHHH | not failed
MTHVQTMLETYPKDLGDIDRAKLIECIKACFECAQTCTACADACLSEDMVAELTKCIRTNLDCADICVATGNMLSRHTGYDANVTRAVLEACRTVCKACADECEQHASMHEHCRACAEACRRCEKACADLLGSLG | failed
